Measured values from paper PMC4188263.

Key:
[1] = molecular target: methanol dehydrogenase α subunit from Methylococcus capsulatus (Bath) (Methylococcus capsulatus (Bath)); assay: SEC
[2] = molecular target: methanol dehydrogenase α subunit from Methylococcus capsulatus (Bath) (Methylococcus capsulatus (Bath)); assay: SEC-MALS
[3] = molecular target: methanol dehydrogenase from Methylococcus capsulatus (Bath), α2β2 dimer (Methylococcus capsulatus (Bath)); assay: BLI

Row | Substance | stoichiometry N [1] | stoichiometry N [2] | Kd [3]
1 | methanol dehydrogenase α subunit from Methylococcus capsulatus (Bath) (natural protein) | 2 | 2 | 
2 | spmoB, truncated recombinant periplasmic domains of M. capsulatus (Bath) pMMO subunit pmoB (domain or fragment) |  |  | 9 µM
